Measurements published in patent US20180306795A1 (CIZZLE BIOTECHNOLOGY, published 2018).
No end group written: not given here.

How the values were obtained:
[1] = target: T1, human fibrinogen alpha chain (carrier protein in human plasma) (human, UniProt P02671-2 20-629); experiment: peptide incubated with normal human plasma, western blot (FIG. 10C)
T1 construct: mature; This is the carrier protein of normal plasma that runs at about 65-70 kDa in reducing SDS-PAGE; also called Uniprot P02671
T1 sequence (looked up): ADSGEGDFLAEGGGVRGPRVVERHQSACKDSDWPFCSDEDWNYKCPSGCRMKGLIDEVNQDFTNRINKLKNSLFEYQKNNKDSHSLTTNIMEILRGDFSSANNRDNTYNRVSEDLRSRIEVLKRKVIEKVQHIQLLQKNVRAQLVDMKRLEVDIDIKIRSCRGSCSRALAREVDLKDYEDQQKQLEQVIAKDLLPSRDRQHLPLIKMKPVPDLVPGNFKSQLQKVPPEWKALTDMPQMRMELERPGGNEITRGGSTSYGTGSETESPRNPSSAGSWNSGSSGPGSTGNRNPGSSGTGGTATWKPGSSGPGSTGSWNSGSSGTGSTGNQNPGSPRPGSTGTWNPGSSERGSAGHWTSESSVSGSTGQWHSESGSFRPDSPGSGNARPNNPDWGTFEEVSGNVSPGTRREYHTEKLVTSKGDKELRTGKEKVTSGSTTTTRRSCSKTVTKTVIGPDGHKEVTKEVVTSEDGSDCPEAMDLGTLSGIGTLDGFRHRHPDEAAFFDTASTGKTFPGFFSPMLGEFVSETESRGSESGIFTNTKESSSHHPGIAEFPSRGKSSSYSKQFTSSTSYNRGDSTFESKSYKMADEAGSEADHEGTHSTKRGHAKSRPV
Description: (§1) Band identity was verified by ponceau S stain followed by Western blot with anti-CIZ1b antibody 043 of a parallel gel (right). B) Gel slices were soaked in 2% SDS-PAGE loading buffer (with 200 mM βME) and separated through a denaturing gel to recover the 043-reactive species at 70 kDa. Note that sample loaded as a gel slice is slightly retardation compared to markers which are loaded in solution. […] C) Western blot of normal human plasma (non-cancer, N) showing reconstitution of CIZ1b epitope via complex formation between a carrier protein in plasma and synthetic CIZ1b peptides of the indicated lengths, but not equivalent CIZ1a peptide (Table 2). Note that free peptides migrate in reducing SDS-PAGE with a relative mobility 3 times expected (˜21 kDa instead of 7.6 kDa for b66, ˜5 kDa instead of 1.6 for b13). None are recognized by CIZ1b antibodies in western blot unless complexed with carrier protein. For CIZ1b66 peptide a new reactive species is created at ˜80 kDa, while CIZ1b13 peptide increases antigenicity at the same mobility as the endogenous epitope in lung cancer plasmas (C, lane 1). D) Western blot of non-reducing SDS-PAGE gel showing purified fibrinogen (6 nmols) in all lanes (upper), with and without prior incubation with 100 pmols of the indicated peptides (Table 2), probed with CIZ1b antibodies as indicated. […]

[2] = target: T1, human fibrinogen alpha chain (carrier …); experiment: 50 nmols peptide mixed with 0.5 ul non-cancer plasma, western blot
Description: FIG. 3—Ciz1 b-variant ˜65-70 kDa species is a Ciz1 b-variant peptide stably bound to a carrier protein, which may augment antigenicity of Ciz1 b-variant peptide. a) Western blot illustrating cancer-selective epitope recognised by anti-Ciz1 b-variant antibody 2B, as described previously (Higgins et al; as above). b) Reconstitution of a Ciz1 b-variant epitope from synthetic b-variant peptide (50 nmols of […] DFLV—SEQ ID NO: 12) mixed with 0.5 ul of non-cancer plasma. Free peptide migrates with mobility indicative of a MW 3-4× greater than predicted (˜30 kDa instead of 7.6 kDa), indicated by blue arrow. When incubated in plasma mobility decreases, antigenicity increases, and a new species is created at ˜80 kDa, indicated by red arrow. c) Similar results were generated with a separate anti-Ciz1 b-variant monoclonal antibody. d) For reference, a duplicate blot is probed with a monoclonal antibody that is selective for the exon 14a version of the peptide ([…]—SEQ ID NO: 13), showing detection of the peptide in lanes 1 and 3. Key: Lane 1, WT peptide only. Lane 2, B-var peptide only. Lane 3, WT peptide+normal plasma. Lane 4, B-var peptide+normal plasma. Lane 5, normal plasma only. […] F) Western blot showing titration of short peptide ([…]—SEQ ID NO: 2) into cancer patient plasma, detected with anti-Ciz1 b-variant monoclonal antibody (upper) or anti-Ciz1 b-variant polyclonal antibody 043 (lower).

[3] = target: T1, human fibrinogen alpha chain (carrier …); experiment: peptide incubated with normal human plasma, reducing SDS-PAGE, western blot with 2B and 043
Description: as §1

[4] = target: T1, human fibrinogen alpha chain (carrier …); experiment: peptide combined with plasma, western blot

B1: Long CIZ1b peptide (b66) (peptide)
peptide: EIAGQDEDHFITVDAVGCFEGDEEEEEDDEDEEEIEVRSRDISREEWKGSETYSPNTAYGVDFLVP
notes: also called CIZ1b66
binding result [1]: binds

B2: Long Ciz1 b-variant peptide (SEQ ID NO: 12) (peptide)
peptide: EIAGQDEDHFITVDAVGCFEGDEEEEEDDEDEEEIEVRSRDISREEWKGSETYSPNTAYGVDFLV
notes: also called synthetic b-variant peptide; B-var peptide
binding result [2]: binds

CDEEEIEVRSRDIS-NH2 (also called CIZ1b13) [Short CIZ1b peptide (b13)]
binding result [3]: binds

B3: Short Ciz1 b-variant peptide DEEEIEVRSRDIS (peptide)
peptide: DEEEIEVRSRDIS
notes: also called short b-variant peptide; short peptide
binding result [4]: binds
